Reference: paper PMC4914982

Columns and labels:
Assay in all cases: SEC + native gel or EMSA; SEC: Superdex S200 10/300 GL, PBS pH 7.4, approximately 500 ul of 1 mg/ml protein injected, UV 280 nm; semi-native PAGE: 12% SDS-PAGE, Laemmli buffer with 0.2% SDS and 12.5 mM EDTA, no beta-mercaptoethanol, samples not heated; monomer to dimer
sfGFP-N149Y = target: sfGFP-N149Y
sfGFP-N149Y/Q204H = target: sfGFP-N149Y/Q204H
sfGFP-N149Y/Q204H/I167T = target: sfGFP-N149Y/Q204H/I167T
[1] = target: sfGFP-N149Y/Q204H/I167T/I188V
sfGFP-N149Y/Q204H/I188V = target: sfGFP-N149Y/Q204H/I188V
sfGFP-Q204H = target: sfGFP-Q204H

**Q.** For sfGFP-N149Y, which stoichiometry N (sfGFP-N149Y) is on record?
**A.** The stoichiometry N was 2.

**Q.** For sfGFP-N149Y/Q204H, which stoichiometry N (sfGFP-N149Y/Q204H) is on record?
**A.** The stoichiometry N was 2.

**Q.** For sfGFP-N149Y/Q204H/I167T, which stoichiometry N (sfGFP-N149Y/Q204H/I167T) is on record?
**A.** Its stoichiometry N is 2.

**Q.** For sfGFP-N149Y/Q204H/I167T/I188V, which stoichiometry N [1] is on record?
**A.** Its stoichiometry N is 2.

**Q.** For sfGFP-N149Y/Q204H/I188V, which stoichiometry N (sfGFP-N149Y/Q204H/I188V) is on record?
**A.** Its stoichiometry N is 2.

**Q.** How did the stoichiometry N (sfGFP-Q204H) turn out when sfGFP-Q204H was run?
**A.** The stoichiometry N was 2.
